This is an account of results in PMC10512374, “Characterization and Phylogenetic Analysis of a Novel GH43 β-Xylosidase From Neocallimastix californiae” (Frontiers in Fungal Biology, 2021).

In one data set the target is T1, Xyl43Nc (Neocallimastix californiae, UniProt A0A1Y2A0L6).
T1 construct: E. coli BL21 pLysS (DE3); HisTrap and Sephacryl S-200
T1 sequence (A0A1Y2A0L6 1-326): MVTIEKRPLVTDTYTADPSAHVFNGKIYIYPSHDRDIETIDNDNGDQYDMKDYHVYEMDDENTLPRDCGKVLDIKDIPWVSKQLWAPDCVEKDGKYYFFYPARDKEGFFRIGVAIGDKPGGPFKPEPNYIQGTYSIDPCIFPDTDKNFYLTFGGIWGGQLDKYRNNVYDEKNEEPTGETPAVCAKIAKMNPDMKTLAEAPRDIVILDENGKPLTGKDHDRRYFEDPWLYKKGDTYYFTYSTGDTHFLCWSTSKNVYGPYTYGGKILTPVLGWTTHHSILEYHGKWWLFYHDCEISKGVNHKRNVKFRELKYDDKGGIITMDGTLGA
Briefly: product inhibition of 4-nitrophenyl xyloside hydrolysis, […] nm, curve fit. The conditions noted are these: competitive, xylose 0-10 mM, substrate 4-nitrophenol-xylopyranoside 0.25-7.5 mM. In kind it is biochemical.

Substrate in the data set “purified protein”: O=[N+]([O-])c1ccc(O[C@@H]2OC[C@@H](O)[C@H](O)[C@H]2O)cc1
Briefly: purified protein. In kind it is biochemical, Neocallimastix californiae. The conditions noted are these: pH 6, 32 °C, no added metal.

The Ki is the equilibrium dissociation constant of an inhibitor or competing ligand from its target. Low readings indicate tighter binding, high ones weaker binding. `OC1OC[C@@H](O)[C@H](O)[C@H]1O` (stereo partly shown) [xylose] gave a Ki at Xyl43Nc of 6.11 mM.

B1: Xyl43Nc (Neocallimastix californiae) (protein)
chain: T1 sequence (A0A1Y2A0L6 1-326)
notes: E. coli BL21 pLysS (DE3); HisTrap and Sephacryl S-200
In general, Km refers to the substrate concentration at which the rate is half of its maximum. As usually defined, the Vmax is the rate approached at saturating substrate. The term kcat denotes the number of substrate molecules converted per active site and unit of time at saturation. For the molecule B1, in the data set “purified protein”, the Km amounted to 720 µM, the Vmax turned out to be 47 µmol/min/mg and the kcat stood at 29.3 s⁻¹.
